Results taken from US20190185532A1 (UNIVERSITY OF BIRMINGHAM, published 2019).
Each block holds one binder with its values, some of them ahead of it.

Assays:
[1] = biological target: T1, CLEC14A-ECD-Fc (human CLEC14A extracellular domain fused to an Fc tag) (human, UniProt Q86T13 22-396); test: far western blot; HEK293T lysates probed with CLEC14A-ECD-Fc
T1 construct: Expressed in HEK293T cells; also called hCLEC14A-ECD-Fc; C14A-Fc; not shown: human IgG Fc tag
T1 sequence: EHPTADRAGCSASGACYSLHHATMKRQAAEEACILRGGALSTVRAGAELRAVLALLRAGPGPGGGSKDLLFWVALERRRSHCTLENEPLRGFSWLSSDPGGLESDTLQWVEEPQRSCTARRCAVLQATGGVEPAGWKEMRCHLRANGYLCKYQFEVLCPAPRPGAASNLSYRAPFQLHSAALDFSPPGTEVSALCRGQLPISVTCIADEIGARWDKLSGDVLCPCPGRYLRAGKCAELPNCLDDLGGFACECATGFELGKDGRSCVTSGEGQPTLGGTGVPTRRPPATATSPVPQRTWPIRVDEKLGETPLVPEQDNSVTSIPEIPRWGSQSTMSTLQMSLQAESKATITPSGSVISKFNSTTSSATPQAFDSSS
Excerpt: FIG. 2. […] (A) Diagrams of MMRN2 truncation mutants, showing the elastin microfibril interface (EMI) domain, coiled-coil (CC) domain and complement related C1q domain. The minimal CLEC14A binding fragment is highlighted in black. (B,C) HEK293T were transfected with truncation mutants. Lysates were far western blotted under reduced conditions with CLEC14A extracellular domain fused to an Fc tag (CLEC14A-ECD-Fc) and western blotted by use of His tag antibodies. (B) The smallest binding fragment was identified as MMRN2⁴⁸⁷⁻⁸²⁰, MMRN2^FL fails to bind CLEC14A-ECD-Fc. (C) The smallest MMRN2 fragment binding CLEC14A is MMRN2⁵³⁰⁻⁶²⁴. (D) MMRN2⁴⁹⁵⁻⁶⁷⁴ and MMRN2⁴⁹⁵⁻⁶⁰³ bind to streptavidin under reducing conditions after biotinylation. (E) Flow cytometry histograms of HEK293T transfected with GFP tagged CTLD group 14 family members and stained with biotinylated MMRN2⁴⁹⁵⁻⁶⁷⁴ (grey line), confirming binding to CLEC14A and CD93 but not thrombomodulin. Streptavidin-PE was used as a control for background binding (grey shaded).
(§1) Whole cell protein lysates were made by incubating with lysis buffer (1% (v/v) NP40, 10 mM Tris pH7.5, 150 mM NaCl and 1 mM EDTA) and pelleting insoluble material. […] The epitope tag of each probed protein was detected with secondary antibody incubation (anti-His or anti-Fc HRP conjugate) and then tertiary anti-mouse HRP for the case of anti-His.

[2] = biological target: T2, mouse CLEC14A-ECD-Fc (murine CLEC14A-ECD fused to a human Fc tag) (mouse; human, UniProt Q8VCP9 22-386); test: far western blot, reduced and non-reduced
T2 construct: extracellular domain; not shown: human Fc tag
T2 sequence (looked up): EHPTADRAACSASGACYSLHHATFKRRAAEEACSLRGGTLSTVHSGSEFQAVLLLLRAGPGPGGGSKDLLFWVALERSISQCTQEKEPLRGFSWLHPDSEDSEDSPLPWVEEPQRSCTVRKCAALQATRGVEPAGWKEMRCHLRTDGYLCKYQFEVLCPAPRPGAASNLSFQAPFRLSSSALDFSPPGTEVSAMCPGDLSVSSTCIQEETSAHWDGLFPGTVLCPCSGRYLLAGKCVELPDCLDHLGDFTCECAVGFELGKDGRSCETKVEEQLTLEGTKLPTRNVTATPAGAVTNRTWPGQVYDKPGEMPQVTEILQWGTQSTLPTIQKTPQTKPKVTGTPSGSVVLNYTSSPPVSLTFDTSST

[3] = biological target: T3, MMRN2^FL (full-length human MMRN2 with a polyhistidine (His) tag) (human, UniProt Q9H8L6 23-949); test: far western blot, non-reduced; HEK293T lysates of GFP-tagged proteins probed with MMRN2^FL-His lysate, anti-His detection
T3 construct: mature; Used as lysate of transfected HEK293T cells; Forms large multimers under non-reduced conditions; also called MMRN2 full-length; MMRN2 FL with His tag; not shown: C-terminal BirA and His tags of vector pHL-Avitag3
T3 sequence (looked up): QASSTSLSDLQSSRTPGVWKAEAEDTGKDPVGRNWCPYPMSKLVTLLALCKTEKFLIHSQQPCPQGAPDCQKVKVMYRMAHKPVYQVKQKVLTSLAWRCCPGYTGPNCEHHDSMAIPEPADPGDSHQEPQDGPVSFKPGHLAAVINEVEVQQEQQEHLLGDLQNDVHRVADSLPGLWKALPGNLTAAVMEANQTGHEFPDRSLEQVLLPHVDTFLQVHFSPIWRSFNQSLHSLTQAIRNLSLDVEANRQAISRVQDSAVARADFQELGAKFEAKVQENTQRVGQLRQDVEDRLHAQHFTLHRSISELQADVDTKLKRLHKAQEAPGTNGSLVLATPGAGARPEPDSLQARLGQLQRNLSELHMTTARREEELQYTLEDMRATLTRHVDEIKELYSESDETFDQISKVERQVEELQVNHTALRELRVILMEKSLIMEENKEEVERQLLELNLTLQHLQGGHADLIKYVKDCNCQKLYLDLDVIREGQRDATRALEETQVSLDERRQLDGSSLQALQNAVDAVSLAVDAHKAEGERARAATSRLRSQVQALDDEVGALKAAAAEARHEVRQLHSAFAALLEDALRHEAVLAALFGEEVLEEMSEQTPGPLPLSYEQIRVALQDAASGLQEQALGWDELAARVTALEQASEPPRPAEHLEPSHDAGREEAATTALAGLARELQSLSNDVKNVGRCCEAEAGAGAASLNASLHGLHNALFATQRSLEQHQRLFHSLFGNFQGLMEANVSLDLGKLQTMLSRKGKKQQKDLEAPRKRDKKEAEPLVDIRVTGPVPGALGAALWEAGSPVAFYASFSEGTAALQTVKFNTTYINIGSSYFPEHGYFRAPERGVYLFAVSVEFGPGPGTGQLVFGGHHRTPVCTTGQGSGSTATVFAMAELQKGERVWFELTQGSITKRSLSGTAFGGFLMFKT
Excerpt: We previously identified MMRN2 as a binding partner of CLEC14A, one of the members of the C-type lectin domain (CTLD) group 14 family (4). To test whether any of the other CTLD group 14 family members also bind to MMRN2, we employed far western blotting using MMRN2 protein probe as a surrogate for a primary antibody in a standard western blot set up. The CTLD group 14 family members CLEC14A, CD93 and thrombomodulin were all constructed with a C-terminal green fluorescent protein (GFP) tag (FIG. 1A). Constructs were transfected into HEK293T cells and lysates were separated by SDS-PAGE under non-reducing conditions to keep disulphide bonds intact, then transferred to PVDF membranes and blotted using HEK293T lysates overexpressing full-length human MMRN2 with a polyhistidine (His) tag. MMRN2 protein binding was detected by staining with an anti-His tag antibody.
as §1, with “material. Standard protocols for western blotting were used.” for “material.”

[4] = biological target: T2, mouse CLEC14A-ECD-Fc (murine …); test: far western blot; HEK293T lysate probed with mouse CLEC14A-ECD-Fc

binding result [3]: binds
B2: CD93 (human, wild type, C-terminal GFP tag, expressed in HEK293T) (receptor)
chain: TGADTEAVVCVGTACYTAHSGKLSAAEAQNHCNQNGGNLATVKSKEEAQHVQRVLAQLLRREAALTARMSKFWIGLQREKGKCLDPSLPLKGFSWVGGGEDTPYSNWHKELRNSCISKRCVSLLLDLSQPLLPSRLPKWSEGPCGSPGSPGSNIEGFVCKFSFKGMCRPLALGGPGQVTYTTPFQTTSSSLEAVPFASAANVACGEGDKDETQSHYFLCKEKAPDVFDWGSSGPLCVSPKYGCNFNNGGCHQDCFEGGDGSFLCGCRPGFRLLDDLVTCASRNPCSSSPCRGGATCVLGPHGKNYTCRCPQGYQLDSSQLDCVDVDECQDSPCAQECVNTPGGFRCECWVGYEPGGPGEGACQDVDECALGRSPCAQGCTNTDGSFHCSCEEGYVLAGEDGTQCQDVDECVGPGGPLCDSLCFNTQGSFHCGCLPGWVLAPNGVSCTMGPVSLGPPSGPPDEEDKGEKEGSTVPRAATASPTRGPEGTPKATPTTSRPSLSSDAPITSAPLKMLAPSGSPGVWREPSIHHATAASGPQEPAGGDSSVATQNNDGTDGQKLLLFYILGTVVAILLLLALALGLLVYRKRRAKREEKKEKKPQNAADSYSWVPERAESRAMENQYSPTPGTDC
notes: On cells in flow cytometry; as non-reduced HEK293T lysate in far western blots; also called CD93 wild type (wt); cell surface expressed CD93; not shown: C-terminal green fluorescent protein (GFP) tag from vector pEGFP-N1

binding result [3]: binds
B4: CLEC14A (human, wild type, C-terminal GFP tag, expressed in HEK293T) (receptor)
chain: EHPTADRAGCSASGACYSLHHATMKRQAAEEACILRGGALSTVRAGAELRAVLALLRAGPGPGGGSKDLLFWVALERRRSHCTLENEPLRGFSWLSSDPGGLESDTLQWVEEPQRSCTARRCAVLQATGGVEPAGWKEMRCHLRANGYLCKYQFEVLCPAPRPGAASNLSYRAPFQLHSAALDFSPPGTEVSALCRGQLPISVTCIADEIGARWDKLSGDVLCPCPGRYLRAGKCAELPNCLDDLGGFACECATGFELGKDGRSCVTSGEGQPTLGGTGVPTRRPPATATSPVPQRTWPIRVDEKLGETPLVPEQDNSVTSIPEIPRWGSQSTMSTLQMSLQAESKATITPSGSVISKFNSTTSSATPQAFDSSSAVVFIFVSTAVVVLVILTMTVLGLVKLCFHESPSSQPRKESMGPPGLESDPEPAALGSSSAHCTNNGVKVGDCDLRDRAEGALLAESPLGSSDA
notes: On cells in flow cytometry; as non-reduced HEK293T lysate in far western blots; also called CLEC14A wt; cell surface expressed CLEC14A; not shown: C-terminal green fluorescent protein (GFP) tag from vector pEGFP-N1

The next lines start with the binder.

B1: MMRN2^495-674 (human, expressed in HEK293T, His tag) (ligand)
chain: QKLYLDLDVIREGQRDATRALEETQVSLDERRQLDGSSLQALQNAVDAVSLAVDAHKAEGERARAATSRLRSQVQALDDEVGALKAAAAEARHEVRQLHSAFAALLEDALRHEAVLAALFGEEVLEEMSEQTPGPLPLSYEQIRVALQDAASGLQEQALGWDELAARVTALEQASEPPRP
notes: not shown: C-terminal BirA and His tags of vector pHL-Avitag3
binding result [1]: binds
binding result [2]: binds

B3: mouse MMRN2^495-678 (expressed in HEK293T, His tag) (ligand)
chain: QRVNSDVDVAPEGHRDVMHTLEETQVSLDEQHQLDGSSLQALQSTVDAMSSAMDAYRGEGERARAERARIRSQLRALDHAVEALKTAANGTRKEIRLLHGSFTALLEDALRHQAVLAALFGEEMIDEMSEEAPRPLPLDYEQIRLALQDAASGLQEQAIGWEDLATRVEALEKAAGGFVEQHPQ
notes: as for B1
binding result [4]: binds
